# Results: the nanobody polyreactivity screen of Harvey et al. (2022)
# Test: yeast display, Sf9 membrane polyspecificity reagent, FACS + sequencing; frameworks hold sequencing errors
# Procedure, shortened: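 Sorting gates, low and high (top ~1%), were placed on anti-HA fluorescence to track expression and on streptavidin fluorescence to track reagent binding. A clone's polyreactivity label is taken from the gate it came out of. The reagent was 10% biotinylated, detergent-solubilized Sf9 membrane, applied for 1 hour at 4 °C to galactose-induced yeast display cells.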
row,Sequence,polyreactivity (PSR sort gate)
1,QVQLVESGGGLVQAGGSLRLSCAASGSIFSKYVMGWYRQAPGKERELVAAISWSGTRTYYADSVKGRFTISRDNAKNTVYLQMNSLKPEDTAVYYCAARRLYAGHQYDYWGQGTQVTVSS,high polyreactivity
2,QVQLVESGGGLVQAGGSLRLSCAASGSIFSLNAMGWYRQAPGKERELVAVINRSGTRTYYADSVKGRFTISRDNAKNTVYLQINSLKPEVTAVYYCNAEPSSGSDAQNEYWGQGTQVTVSS,high polyreactivity
3,QVQLVESGGGLVQAGGSLRLSCAASGSIFSPNAMGWYRQATGKERELVAAISWTGVSTHYADSVKGRFTISRDNAKNTDYLHMNSLKPEDTAVYYCKYRFYRYPKYGYWGQGTQVTVSS,high polyreactivity
4,QVQLVESGGGLVQAGGSLRLSCAASGSIFSPYAMGWYRQAPGKERELVAAITNSGGRTYYADSVKGRFTISRDNAKNTVYLQMNSLKPEDTAVYYCNADYGKHHTDYYYWGQGTQVTVSS,low polyreactivity
5,QVQLVESGGGLVQAGGSLRLSCAASGSIFSPYAMGWYRQAPGKERELVATITWSGGSTYYADSVKGRFTISRDNAKNTVYLQMNSLKPEDTAVYYCAATRSGYTSYTDDSWGQGTQVTVSS,high polyreactivity
6,QVQLVESGGGLVQAGGSLRLSCAASGSIFSQYAMGWYRPAPGKERELVAAISRSGGRTSYADSVKGRFTISRDNAKNTVYLQMNSLKPEDTAVYYCAARGPTNMGYWGQGTQVTVSS,high polyreactivity
7,QVQLVESGGGLVQAGGSLRLSCAASGSIFSQYAMGWYRQAPGKEREFVAAINWSGGRTRYADSVKGRFTISRDNAKNTVYLEMKSLKPEDTAVYYCNARGYSGVSGKYGYWGQGTQVTVSS,high polyreactivity
8,QVQLVESGGGLVQAGGSLRLSCAASGSIFSQYAMGWYRQAPGKERELVAAISGGGGSTSYADSVKGRFTISRDNAKNTVYLQMNSLKPDDTAVYYCAAYLYNRPYQLTGYYDGYGYWGQGTQVTVSS,low polyreactivity
9,QVQLVESGGGLVQAGGSLRLSCAASGSIFSQYAMGWYRQAPGKERELVAAISRSGGRTSYADSVKGRFTISRDNAKNTVYLQMNSLKPEDTAVYYCAARGPTNMGYWGQGTQVTVSS,high polyreactivity
10,QVQLVESGGGLVQAGGSLRLSCAASGSIFSQYVMGWYRQAPGNERELVAAIVWSSGSTYYADSVKGRFTMSRDNAKNTVYLQMNSLKPEDTAVYYCAARTKAFKPGYGYWGQGTQVTVSS,low polyreactivity
11,QVQLVESGGGLVQAGGSLRLSCAASGSIFSRNAMAWYRQAPGKERELVAAISGSGGSTYYADSVKGRFTISRDNAKNTVYLQMNSLKPEDTAVYYCNKFGYHREYDYWGQGTQVTVSS,low polyreactivity
12,QVQLVESGGGLVQAGGSLRLSCAASGSIFSRNAMGWYRQAPGKEREFVARISWSSTSTNYADSVKGRFTISRDNAKNTVYLQMNSLKPEDTAVYYCAADFRGDRRFDYWGQGTQVSVSS,low polyreactivity
13,QVQLVESGGGLVQAGGSLRLSCAASGSIFSRNAMGWYRQAPGKEREFVARISWSSTSTNYAESVKGRFTISRDNAKNTVYLQMNSLKPEDSAVYYCAAHFRGDRRFDYWGQGTQVTVSS,high polyreactivity
14,QVQLVESGGGLVQAGGSLRLSCAASGSIFSRNAMGWYRQAPGKERELVAAISWRGGSTYYADSVKGRFTISRDNAKYTVYLQMNSLKPEDTAVYYCGALSYPGKAGMGYWGQGTQVTVSS,high polyreactivity
15,QVQLVESGGGLVQAGGSLRLSCAASGSIFSRNTMGWYRQAPGKERELVAGISSSGSRTYYADSVKGRFTISRDNPKNTVYLQMNSLKPEDTAVYYCAAEHQRSRGRRYYIGYDYWGQGTQVTVSS,low polyreactivity
16,QVQLVESGGGLVQAGGSLRLSCAASGSIFSRYAMGRYRQAPGKERELVAAISKSGGSTYYADSVKGRFTISRDNAKNTVYLQMNSLKPEDTAVYYCNARDSPGQRRAEPYGYWGQGTQVTVSS,high polyreactivity
17,QVQLVESGGGLVQAGGSLRLSCAASGSIFSRYAMGWYRTAPGKERELVAAINKSGGSTYYADSVKGRFTISRDNAKNTVYLQMNSLKPEDTAVYYCNAVYYWYKGDYWGQGTQVTVSS,high polyreactivity
18,QVQLVESGGGLVQAGGSLRLSCAASGSIFSSNAMGWYRQAPGKERELVAAITRGGRTTYADSVKGRFTISRDNAKKTVYLQMNSLKPEDTAVYYCNAESYLTGWWVDYWGQGTQVTVSS,low polyreactivity
19,QVQLVESGGGLVQAGGSLRLSCAASGSIFSSNAMGWYRQPPGKERELVAAITSGGSTYYADSVKGRFTISRDNAKNTVYLQMNSLKPEDTAVYYCAASYWGFQRMYYWGQGTQVTVSS,high polyreactivity
20,QVQLVESGGGLVQAGGSLRLSCAASGSIFSSNTMGWYRPAPGKERELVAAITSGGGTYYADSVKGRFTISRDNAKNTVYLQMNSLKPEDTAVYYCAAQRVYKSSPSYDYWGQGTQVTVSS,low polyreactivity
21,QVQLVESGGGLVQAGGSLRLSCAASGSIFSSYAMGWSRQAPGKERELVAAISSGDSTYYADSVKGRFTISRDNAKTTVYLQMNSLKPEDTAVYYCAAPWYAWGQGTQVTVSS,low polyreactivity

row,Sequence,polyreactivity (PSR sort gate)
1,QVQLVESGGGLVQAGGSLRLSCAASGSIFSSYAMGWYRQAPGKERELVAAISQSGGDTYYADSVKGRFTISRDNAKNTVYLQMNSLKPEDTAVYYCAASVWYYPMDYWGKGTQVTVSS,low polyreactivity
2,QVQLVESGGGLVQAGGSLRLSCAASGSIFSSYAMGWYRQAPGKERELVAAISQSGGDTYYADSVKGRFTISRDNAKYTVYLQMNSLKPDDTAVYYCAASVWYFPMDYWGQGTQLTVSS,low polyreactivity
3,QVQLVESGGGLVQAGGSLRLSCAASGSIFSSYAMGWYRQAPGKERELVAAISSGGITYYADSVKGRFTISRDNAKNTVYLQMNSLKPEDTAVYYCAAVRRRGTTYDYWGQGTQVTVSS,high polyreactivity
4,QVQLVESGGGLVQAGGSLRLSCAASGSIFSSYAMGWYRQAPGKERELVAAISTAGSTNYADSVKGRFTISRDNAKNTVYLQINSLKPEDTAVYYCAADSGDQQSYGLDLNHDFDYWGQGSQVTVSS,low polyreactivity
5,QVQLVESGGGLVQAGGSLRLSCAASGSIFSSYAMGWYRQAPGKERELVATITSSGGSTYYADSVKGRFTISRDNAKNTVYLQMNSLKPADTAVYYCAASYHTSYSLRRYYYWGQGTQVTVSS,low polyreactivity
6,QVQLVESGGGLVQAGGSLRLSCAASGSIFSSYAMGWYRQAPGKERELVATITSSGGSTYYADSVKGRFTISRDNAKNTVYLQMNSLKPEVTAVYYCAASYHTSYSLRSYYYWGQGTQVTVSS,low polyreactivity
7,QVQLVESGGGLVQAGGSLRLSCAASGSIFSSYAMGWYRQAPGKERELVAVINSGGSTNYADSVKGRFTISRDNAKNSVYVQMKSLKPEDTAVYYCNAYGGTFHNTAAEFDYWRQGTQVTVSS,low polyreactivity
8,QVQLVESGGGLVQAGGSLRLSCAASGSIFSSYGMGWYRQAPGKERELVATITGSGGSTYYSDSVKGRLTISRVNAKNTVYLQMNSLKPEDTAVYYCATRLGWFVKYYTGRYYYWGQGTQVTVSS,high polyreactivity
9,QVQLVESGGGLVQAGGSLRLSCAASGSIFSTNAIGGYRQAPGTQRELVAVITGIGGITYYADSVKGRFTISRDNAKKTVYLQRNSLKPDDTAVYYCADDPISEFSWGVKDRYDYWGQGTQVTVSS,low polyreactivity
10,QVQLVESGGGLVQAGGSLRLSCAASGSIFSTNDRGWYRQAPGKERELVAAISVSGGSTYYADSVKGRFTISRDNAKNTVYLQMNSLKPEDTAVYYCNADYTRGTMYYWGQGTQVTVSS,low polyreactivity
11,QVQLVESGGGLVQAGGSLRLSCAASGSIFSTYAIVWYRQAPGKERELVAAISVSGGRTYYADSVKGRFTISRDNAKYTVYLQMNSLKPEDTAVYYCNAYPFWRDYDYWGQGTQVTVSS,high polyreactivity
12,QVQLVESGGGLVQAGGSLRLSCAASGSIFSTYAMGWYRQAPVKERELVAAINSGDSTSYADSVKGRFTISRDNAKNTVYLQMNSLKPEDTAVYYCAAKTGGYWYLRRTARYESWGQGTQVTVSS,low polyreactivity
13,QVQLVESGGGLVQAGGSLRLSCAASGSIFSTYTMGWYRQAPGTERELVAAITRSGGSTYNADSVKGRFTISRDNAKNTVYLQMNSLKPEDTAVYYCAARWKFPSSFYYWGQGTQVTVSS,high polyreactivity
14,QVQLVESGGGLVQAGGSLRLSCAASGSIFSVNAMGWYRQAPGTEREFVASINFRGGRTYYADSVKGRFRISRDNAKNTVYLQMNCLKPEDTADYYCAAVITLTDTGYGPSFRVFYWGQGTQVTVSS,high polyreactivity
15,QVQLVESGGGLVQAGGSLRLSCAASGSIFSVNTMGWYRQAPGKERELVAAISGSGGSTYYADSVKGRFTISRDNATNPVYLQMNSLKPEETAVYYCAKVYRRGAGYNYWGQGTQVTVSS,high polyreactivity
16,QVQLVESGGGLVQAGGSLRLSCAASGSIFSVNTMGWYRQAPGKQRELVAAISESGDGTYYADSVKGRFTISRDNAKNTVYLQMNSLKPEDTAVYYCNADRQKGGGYYPHEFDYWGQGTQVTVSS,low polyreactivity
17,QVQLVESGGGLVQAGGSLRLSCAASGSIFSVYAMGWYRQAPGKERELVAAITSGTSTYADSVKGRFTISRDNAKNTVYLQMNSLKPEDTAVYYCAAESGSPGYYYWGQGTQVTVSS,low polyreactivity
18,QVQLVESGGGLVQAGGSLRLSCAASGSIFSVYDMGWYRQAPGKERELVAAISRSGGSTYYADSVKGRFTISRDNAKNTVYLQRNSLKPEDTAVYYCNAVRRTGGHGDYWGQGTQVTVSS,high polyreactivity
19,QVQLVESGGGLVQAGGSLRLSCAASGSIFSWNAMGWYRPAPGKEREFVAAISYGSTSTTYADSVKGRFTISRDNAKNTVYLQMNSLKPEDTAVYYCAAVPRRSGHQRWGATYYYWGQGTQVTVSS,high polyreactivity
20,QVQLVESGGGLVQAGGSLRLSCAASGSIFSWNAMGWYRQAPGKERELVAAISTRGSSTYYADSVKGRFTISRDNAKNTVYLQMNSLKPEDTAVYYCNAARTFPFYWGLRGSQRYDYWGQGTQVTVSS,high polyreactivity
